Experimental data taken from US20250382359A1 (BYOMASS, published 2025).
Numbering of substitutions follows the chain as printed.

T1: GDF15 (ligand used in the GFRAL/RET cell assays) (UniProt Q99988 197-308, limits assumed)
T1 sequence (looked up): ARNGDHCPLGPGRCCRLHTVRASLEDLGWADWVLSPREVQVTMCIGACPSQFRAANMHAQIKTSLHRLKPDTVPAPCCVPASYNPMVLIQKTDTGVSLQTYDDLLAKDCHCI

T2: Cyno GDF15 Fc (cyno, UniProt G7PWZ3 193-308, limits assumed)
T2 construct: also called cyno GDF15-Fc fusion; not shown: Fc part
T2 sequence: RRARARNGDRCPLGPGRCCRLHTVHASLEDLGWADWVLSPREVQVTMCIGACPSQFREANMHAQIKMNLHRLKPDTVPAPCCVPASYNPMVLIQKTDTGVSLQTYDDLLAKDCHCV

T3: Mouse GDF15 Fc (mouse, UniProt Q9Z0J7 189-303, limits assumed)
T3 construct: also called mouse GDF15-Fc fusion; not shown: Fc part
T3 sequence (looked up): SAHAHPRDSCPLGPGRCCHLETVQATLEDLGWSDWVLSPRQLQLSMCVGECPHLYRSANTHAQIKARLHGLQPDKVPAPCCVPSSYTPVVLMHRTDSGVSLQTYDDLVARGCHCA

T4: Human GDF15 Fc (human, UniProt Q99988 195-308, limits assumed, biotinylated (EZ-Link Sulfo-NHS-Biotinylation Kit) in the SPR assay)
T4 construct: also called human GDF15-Fc fusion; biotinylated Human GDF15 Fc; not shown: Fc part
T4 sequence: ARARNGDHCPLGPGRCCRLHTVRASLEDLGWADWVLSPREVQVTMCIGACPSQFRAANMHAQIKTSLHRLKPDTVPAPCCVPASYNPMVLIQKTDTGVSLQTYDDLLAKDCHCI

T5: Human BMP9 (human, UniProt Q9UK05 320-429)
T5 sequence (looked up): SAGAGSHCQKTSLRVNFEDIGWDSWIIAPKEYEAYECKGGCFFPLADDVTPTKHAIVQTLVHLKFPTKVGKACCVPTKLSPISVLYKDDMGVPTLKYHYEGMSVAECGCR

T6: Human Activin B (human, UniProt P09529 293-407)
T6 sequence (looked up): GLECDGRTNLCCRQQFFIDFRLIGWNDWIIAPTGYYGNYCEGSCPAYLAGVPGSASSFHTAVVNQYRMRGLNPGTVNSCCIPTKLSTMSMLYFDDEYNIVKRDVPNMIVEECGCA

T7: GDF10 (UniProt P55107 369-478)
T7 sequence (looked up): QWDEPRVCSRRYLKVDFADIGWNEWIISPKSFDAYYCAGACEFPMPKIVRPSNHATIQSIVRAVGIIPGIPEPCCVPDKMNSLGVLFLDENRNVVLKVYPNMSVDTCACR

T8: Human Activin A Fc (human, UniProt P08476 311-426)
T8 construct: not shown: Fc part
T8 sequence (looked up): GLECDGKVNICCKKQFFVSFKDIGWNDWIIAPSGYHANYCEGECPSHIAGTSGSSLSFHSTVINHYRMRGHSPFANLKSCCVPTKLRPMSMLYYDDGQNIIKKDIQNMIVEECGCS

T9: Human BMP10 (human, UniProt O95393 317-424)
T9 sequence (looked up): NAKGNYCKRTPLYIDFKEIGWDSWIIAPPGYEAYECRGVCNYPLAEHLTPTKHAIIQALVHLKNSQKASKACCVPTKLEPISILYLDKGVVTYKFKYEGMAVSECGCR

T10: GDNF (UniProt P39905 78-211)
T10 sequence (looked up): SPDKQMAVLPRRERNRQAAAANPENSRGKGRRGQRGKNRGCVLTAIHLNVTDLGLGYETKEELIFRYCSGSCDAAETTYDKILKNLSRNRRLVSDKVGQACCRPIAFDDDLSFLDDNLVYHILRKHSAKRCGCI

B1: GDF15 antibody agent Clone B, Fab (Fab, V domains shown)
VH: QVQLQESGPGLVKPSQTLSLTCTVSGGSISSGGIYWTWIRQHPGKGLEWIGAIAYSGSTYYNPSLKSRVTISVDTSKNQFSLKLSSVTAADTAVYYCARGIEYQHFDYWGQGTLVTVSS
VL: not shown
notes: Fab; CH1 and CL of the Fab not specified; also called Fab of Clone B
B2: GDF15 antibody agent Clone R, Fab (Fab, V domains shown)
VH: B1 VH with K66E
VL: not shown
notes: Fab; CH1 and CL of the Fab not specified; also called Fab of Clone R
B3: GDF15 antibody agent Clone Q, Fab (Fab, V domains shown)
VH: B1 VH
VL: not shown
notes: Fab; CH1 and CL of the Fab not specified; also called Fab of Clone Q
B4: GDF15 antibody agent Clone C, Fab (Fab, V domains shown)
VH: B1 VH with I34Y, T37S, A54V, S58H, I101V, D107S, Y108L
VL: not shown
notes: Fab; CH1 and CL of the Fab not specified; also called Fab of Clone C
B5: GDF15 antibody agent Clone D, Fab (Fab, V domains shown)
VH: B1 VH with S30N, I34Y, A54Y, Y60V, I101V, D107N, Y108E
VL: not shown
notes: Fab; CH1 and CL of the Fab not specified; also called Fab of Clone D
B6: GDF15 antibody agent Clone A, Fab (Fab, V domains shown)
VH: B1 VH with S30T, I34S, T37S, A54V, I101V
VL: not shown
notes: Fab; CH1 and CL of the Fab not specified; also called Fab of Clone A
B7: GDF15 antibody agent Clone N, Fab (Fab, V domains shown)
VH: QVQLVQSGAEVKKPGASVKVSCKASGYTFTDYGIFWVRQAPGQGLEWMGWITAYSGDTHYAQKLQGRVTMTTDTSTSTAYMELRSLRSDDTAVYYCVRDTQYGGSPYWGQGTLVTVSS
VL: EIVMTQSPATLSVSPGERATLSCRASQSVSSNLAWYQQKPGQAPRLLIYGASTRATGIPARFSGSGSGTEFTLTISSLQSEDFAVYYCQQYNNWPITFGGGTKVEIK
notes: Fab; CH1 and CL of the Fab not specified; also called Fab of Clone N
B8: GDF15 antibody agent Clone I, IgG (antibody, V domains shown)
VH: QVQLVQSGAEVKKPGASVKVSCKASGYTFTDEGINWVRQAPGQGLEWMGWITAYSGDTVYAQKLQGRVTMTTDTSTSTAYMELRSLRSDDTAVYYCARGPGQYADVDVWGQGTMVTVSS
VL: DIQMTQSPSSVSASVGDRVTITCRASQGISSWLAWYQQKPGKAPKLLIYAASSLQSGVPSRFSGSGSGTDFTLTISSLQPEDFATYYCQQANSFPITFGGGTKVEIKR
B9: GDF15 antibody agent Clone P, IgG (antibody, V domains shown)
VH: QVQLVQSGAEVKKPGATVKVSCKASGYTFDSYGIHWVRQAPGQGLEWMGWITAYSGDTVYAQKLQGRVTMTTDTSTSTAYMELRSLRSDDTAVYYCARESGQTSSALGPWGQGTLVTVSS
VL: B8 VL with S31R, A91G, N92A, I96L
B10: GDF15 antibody agent Clone J, IgG (antibody, V domains shown)
VH: B8 VH with D31S, E32Y, T52D, D57S, V59N
VL: B8 VL
B11: GDF15 antibody agent Clone F, IgG (antibody, V domains shown)
VH: QVQLVQSGAEVKKPGSSVKVSCKASGGTFGGYAISWVRQAPGQGLEWMGGIIPPYATANYAQKFQGRVTITADESTSTAYMELSSLRSEDTAVYYCARGVGTTHLDVWGQGTMVTVSS
VL: not shown
B12: GDF15 antibody agent Clone F, Fab (Fab, V domains shown)
VH: B11 VH
VL: not shown
notes: Fab; CH1 and CL of the Fab not specified; also called Fab of Clone F
B13: GDF15 antibody agent Clone G, Fab (Fab, V domains shown)
VH: B11 VH with G30Q, V37A, T102E, T103L
VL: not shown
notes: Fab; CH1 and CL of the Fab not specified; also called Fab of Clone G

Tests used:
[1] = molecular target: T1, GDF15 (ligand used in the GFRAL/RET …); assay: cell-based or functional assay
Cyno GDF15 Fc = molecular target: T2, Cyno GDF15 Fc; assay: BLI Octet; antigen on sensor, 100 nM Fab (monovalent)
Mouse GDF15 Fc = molecular target: T3, Mouse GDF15 Fc; assay: as above
Human GDF15 Fc [2] = molecular target: T4, Human GDF15 Fc; assay: SPR Biacore 8K; biotinylated antigen captured, Fab analyte
Description: Kinetic analysis was conducted at 25° C. in HBS-EP+running buffer (10 mM HEPES pH 7.4, 150 mM NaCl, 3 mM EDTA, 0.05% Surfactant P20) using a Biacore 8K optical biosensor (Cytiva, Marlborough, MA). The sample compartment was maintained at 10° C. for the duration of the experiment. The Biacore 8K can analyze up to 8 separate interactions in a single cycle.
Each experiment cycle began with an injection (300 s at 2 μL/min) overflow cells 1 and 2 of a 1:100 solution of biotin CAPture reagent (Cytiva) in running buffer. This was followed by an injection (45 s at 10.0 μL/min) of biotinylated human GDF15 (5 nM) overflow cell 2. […] The dissociation of the antibodies were monitored for 3420 s. Finally, an injection (120 s at 10 μL/min) of regeneration solution (6 M Guanidine-HCl in 0.25 M NaOH) overflow cells 1 and 2 prepared the sensor surface for another cycle. Several blank buffer samples were injected (300 s at 30 μL/min) overflow cells 1 and 2 throughout the duration of the experiment and used for reference surface subtraction—each were monitored for the same amount of dissociation time (3420 s) and regenerated under the same conditions as those for the Fab sample injections.

GDF11 = molecular target: T11, GDF11 (UniProt O95390 299-407); assay: BLI Octet; IgG on sensor
T11 construct: Also used as ligand in the Activin 2B receptor/SMAD reporter assay

GDF8 = GDF8 (UniProt O14793 267-375); assay: BLI Octet; IgG on sensor
Human BMP9 = molecular target: T5, Human BMP9; assay: BLI Octet; IgG on sensor
Human Activin B = molecular target: T6, Human Activin B; assay: BLI Octet; IgG on sensor
GDF10 = molecular target: T7, GDF10; assay: BLI Octet; IgG on sensor
Human Activin A Fc = molecular target: T8, Human Activin A Fc; assay: BLI Octet; IgG on sensor
Human BMP10 = molecular target: T9, Human BMP10; assay: BLI Octet; IgG on sensor
Human GDF15 Fc [3] = molecular target: T4, Human GDF15 Fc; assay: BLI Octet; IgG on sensor, 100 nM antigen (avid)
Description: Briefly, ForteBio affinity measurements were performed by loading IgGs on-line onto AHC sensors. Sensors were equilibrated off-line in assay buffer for 30 min and then monitored on-line for 60 seconds for baseline establishment. Sensors with loaded IgGs were exposed to 100 nM antigen for 3 minutes, and afterwards were transferred to assay buffer for 3 min for off-rate measurement. All kinetics were analyzed using the 1:1 binding model.

GDNF = molecular target: T10, GDNF; assay: BLI Octet; IgG on sensor

T11 sequence (O95390 299-407 limits assumed): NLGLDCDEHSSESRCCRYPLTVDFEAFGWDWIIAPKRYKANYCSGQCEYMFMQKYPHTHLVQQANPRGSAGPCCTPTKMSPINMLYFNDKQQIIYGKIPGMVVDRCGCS

Row | Binder | GDF15 GFRAL RET pERK Fab IC50 pM [1] [pM] | Kd (Cyno GDF15 Fc) [nM] | Kd (Mouse GDF15 Fc) [nM] | binding result (GDF11) | binding result (GDF8) | binding result (Human Activin B) | binding result (Human Activin A Fc) | binding result (Human BMP10) | GDF15-GFRAL RET pERK IC50 (pM) [1] [pM] | Kd (Human GDF15 Fc [3]) [nM] | further results
1 | B1 | 30.9 | 0.349 |  |  |  |  |  |  |  |  | 
2 | B2 |  | 0.366 | 234 |  |  |  |  |  |  |  | 
3 | B3 |  | 0.327 | 204 |  |  |  |  |  |  |  | 
4 | B4 | 36.8 | 0.36 | 156 |  |  |  |  |  |  |  | 
5 | B5 | 27 | 0.562 | 157 |  |  |  |  |  |  |  | 
6 | B6 | 26.5 | 0.536 |  |  |  |  |  |  |  |  | 
7 | B7 | 322 |  | 2.56 |  |  |  |  |  |  |  | Kd (Human GDF15 Fc [2]): 0.545 nM; koff (Human GDF15 Fc [2]): 0.00318 s⁻¹; kon (Human GDF15 Fc [2]): 5.84e+06 M⁻¹ s⁻¹
8 | B8 |  |  |  | no binding (tested: 100 nM) | no binding (tested: 100 nM) | no binding (tested: 100 nM) | no binding (tested: 100 nM) | no binding (tested: 100 nM) | 34.5 | 0.262 | binding result (Human BMP9): no binding (tested: 100 nM); binding result (GDF10): no binding (tested: 100 nM); GDF15-GFRAL-RET Luciferase IC50 (pM) [1]: 79.3 pM
9 | B9 |  |  |  | no binding (tested: 100 nM) | no binding (tested: 100 nM) | no binding (tested: 100 nM) | no binding (tested: 100 nM) | no binding (tested: 100 nM) | 35.6 | 0.274 | binding result (Human BMP9): no binding (tested: 100 nM); binding result (GDF10): no binding (tested: 100 nM)
10 | B10 |  |  |  | no binding (tested: 100 nM) | no binding (tested: 100 nM) | no binding (tested: 100 nM) | no binding (tested: 100 nM) | no binding (tested: 100 nM) | 30.3 | 0.276 | binding result (Human BMP9): no binding (tested: 100 nM); binding result (GDF10): no binding (tested: 100 nM); GDF15-GFRAL-RET Luciferase IC50 (pM) [1]: 110 pM
11 | B11 |  |  |  | no binding (tested: 100 nM) | no binding (tested: 100 nM) | no binding (tested: 100 nM) | no binding (tested: 100 nM) | no binding (tested: 100 nM) | 34.9 | 0.244 | binding result (GDNF): no binding (tested: 100 nM); GDF15-GFRAL-RET Luciferase IC50 (pM) [1]: 91.3 pM
12 | B12 | 11.2 | 0.553 | 26.1 |  |  |  |  |  |  |  | 
13 | B13 | 33.2 | 0.474 |  |  |  |  |  |  |  |  | 
